To fix the notation:
T1: H-2Db (mouse)
T1 chain 1: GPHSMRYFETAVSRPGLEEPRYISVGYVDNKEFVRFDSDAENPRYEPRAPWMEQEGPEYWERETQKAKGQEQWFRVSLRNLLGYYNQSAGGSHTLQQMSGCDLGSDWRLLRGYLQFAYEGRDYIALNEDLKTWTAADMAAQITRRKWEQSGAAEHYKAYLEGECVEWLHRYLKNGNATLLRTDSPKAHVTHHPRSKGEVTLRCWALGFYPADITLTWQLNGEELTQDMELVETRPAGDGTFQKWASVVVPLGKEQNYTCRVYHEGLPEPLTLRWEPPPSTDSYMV
T1 chain 2: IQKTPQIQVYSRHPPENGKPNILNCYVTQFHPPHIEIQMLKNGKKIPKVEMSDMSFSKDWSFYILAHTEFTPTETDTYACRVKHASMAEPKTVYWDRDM

T2: H-2Kb (mouse)
T2 chain 1: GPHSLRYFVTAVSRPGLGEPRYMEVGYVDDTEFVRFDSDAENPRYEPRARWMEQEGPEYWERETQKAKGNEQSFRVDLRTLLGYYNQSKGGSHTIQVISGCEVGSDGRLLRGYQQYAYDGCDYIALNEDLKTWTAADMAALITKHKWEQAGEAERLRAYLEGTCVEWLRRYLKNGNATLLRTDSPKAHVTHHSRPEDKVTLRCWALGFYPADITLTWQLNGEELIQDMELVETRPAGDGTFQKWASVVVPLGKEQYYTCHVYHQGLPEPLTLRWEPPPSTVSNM
T2 chain 2: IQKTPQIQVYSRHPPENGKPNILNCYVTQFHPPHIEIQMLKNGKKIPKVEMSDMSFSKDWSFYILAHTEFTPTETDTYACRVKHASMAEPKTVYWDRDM

T3: H-2Kd (mouse)
T3 chain 1: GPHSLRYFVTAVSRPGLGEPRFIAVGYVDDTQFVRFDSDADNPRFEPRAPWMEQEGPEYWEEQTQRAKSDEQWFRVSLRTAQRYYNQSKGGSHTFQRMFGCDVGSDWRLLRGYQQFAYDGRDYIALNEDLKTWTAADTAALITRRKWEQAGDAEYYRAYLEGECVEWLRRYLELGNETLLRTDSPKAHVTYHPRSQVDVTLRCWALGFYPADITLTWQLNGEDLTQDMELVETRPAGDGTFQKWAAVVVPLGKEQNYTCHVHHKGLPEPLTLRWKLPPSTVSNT
T3 chain 2: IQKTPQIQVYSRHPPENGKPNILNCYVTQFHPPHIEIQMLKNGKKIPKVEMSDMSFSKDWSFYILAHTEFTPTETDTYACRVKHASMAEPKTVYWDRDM

“And” between values parts separate entries of the source, which are not always exact repeats. Identical values can stand only once.

In one test the target is T1, H-2Db (mouse). Description: competition. The settings on record: modification not given.
One may read the IC50 as the concentration that gives 50% inhibition. A high value points to a need for much substance. As to RGPGRAFVTI [1087.01], the IC50 amounted to 22000 nM. Same read-out and setting: for SHYAFSPM [F190.04] the value was above 88000 nM; for KQYLNLYPV [HBV pol 668], 3.4 nM. Still for that read-out and setting: for AAAANAAAM [F079.08] the value was 23 nM; for AAAAYAAAAM [F079.06], above 44000 nM. SIQFFGERAL [F079.03] registered an IC50 above 44000 nM. Molecule AAAAYAAM [F079.05] showed an IC50 above 44000 nM. On the same count and under the same terms, the figure for TGICNQNII [FluA NM 46] is 21 nM and 13 nM; for SIQFFGEL [F079.04] it is above 44000 nM. On the same count and under the same terms, for FQPQNGQFIHFY [928.15] the value was 280 nM; for SQVMNLHNL [F100.04], 2.3 nM; for KVPRNQDWL [F142.01], 38 nM.

Regarding SGVENPGGYCL [928.07], the IC50 came to 60 nM. Same read-out and setting: the figure for FQPQNGQFI [LCMV NP 396] is 4.9 nM and 6.9 nM and 17 nM; for TALANTIEV [FluA POL1 141] it is 3.7 nM and 16 nM. Still for that read-out and setting: the figure for SSMHNALHI [16.0029] is 7.6 nM. The molecule ASNENMDAM [1275.03] came in with an IC50 of 28 nM. With RNPRFYNL [1079.14], the IC50 is above 44000 nM.

In another test the target is T2, H-2Kb (mouse). Description: competition. The settings on record: modification not given.
Molecule RGPGRAFVTI [1087.01] had an IC50 of 31000 nM. The same measure, in the same setting: for SSLPFQNI [FluA HA 305] the value was 9.5 nM and 53 nM.

The molecule VGLSYSQTM [14.0118] gave an IC50 of 71 nM. The same measure, in the same setting: for ANFSFRNTL [16.0031] the value was 6 nM; for RFYRTCKL [FluA POL1 465], 47 nM. Molecule SHYAFSPM [F190.04] showed an IC50 of 250 nM. Same read-out and setting: for RTFSFQLI [Flu NS 114] the value was 26 nM and 27 nM; for AAAANAAAM [F079.08], 11000 nM; for IGRFYIQM [FluA NP 36], 24 nM and 42 nM. With VYINTALL [FluA POL2 463], the IC50 was 14 nM and 65 nM. Turning to LGYDYSYL [16.0004], the IC50 is 3.4 nM. Same read-out and setting: for SIQFFGERAL [F079.03] the value was 21 nM; for KNKFFSYL [22.0011], 57 nM; for MGLIYNRM [Flu M1 128], 16 nM and 9.9 nM.

Regarding LSYSAGAL [FluA M1 117], the IC50 was 60 nM and 31 nM. Same read-out and setting: for LAVLYCLL [22.0012] the value was 72 nM. Still for that read-out and setting: the figure for VSYVNTNM [HBV core 115] is 33 nM and 60 nM. With VYIEVLHL [FluA POL3 227], the IC50 was 75 nM and 21 nM.

With MITQFESL [Flu NS 31], the IC50 is 42 nM and 64 nM. The same measure, in the same setting: for SIQFFGEL [F079.04] the value was 16 nM; for IVTMFEAL [14.0008], 82 nM; for FAPGYNPAL [1275.04], 2 nM. Same read-out and setting: for MNIQFTAV [FluA HA 403] the value was 26 nM; for KMITQRTI [FluA POL1 198], 300 nM.

In the case of AAAAAANAAAM [F079.09], the IC50 worked out at 31000 nM. On the same count and under the same terms, for SVYDFYVWM [F138.03] the value was 1.2 nM. On the same count and under the same terms, the figure for NAIVFKGL [17.0284] is 484 nM.

In turn, HMWNFIGV [1476.12] returned an IC50 of 202 nM. On to MGLKFRQL [HBV core 122], for which the IC50 was 7.4 nM and 6.3 nM. Same read-out and setting: the figure for SGVENPGGYCL [928.07] is above 31000 nM; for FQPQNGQFI [LCMV NP 396] it is > 31000 nM and 9510 nM; for SVYDFFVWL [F117.14] it is 1 nM. On the same count and under the same terms, for VSAAFYHL [HBV pol 419] the value was 5.2 nM and 7 nM. On the same count and under the same terms, for ISHNFCNL [14.0011] the value was 411 nM; for GVYQFKSV [14.0018], 11 nM; for FFYRYGFV [FluA POL1 495], 350 nM. ASARFSWL [HBV env 329]: the IC50 was 323 nM and 49 nM. Same read-out and setting: the figure for YMVPFIPL [22.0021] is 70 nM; for RNPRFYNL [1079.14] it is 7.9 nM.

The next test deals with T3, H-2Kd (mouse). Nature of the test: competition. The settings on record: modification not given.
In the case of YYVSRDTLL [F078.06], the IC50 amounted to 99 nM. With SYVNTNMGL [HBV core 116], the IC50 is 19 nM and 12 nM. On the same count and under the same terms, for AYAPAKAAI [1114.01] the value was 3.5 nM; for RYLENGKETL [1074.15], 80 nM. The molecule SYVPSAEQIL [1081.06] returned an IC50 of 280 nM.

The molecule HYYVSRDTL [F078.05] returned an IC50 of 43 nM. Still for that read-out and setting: the figure for SYLTLAKHTI [F078.18] is 4.4 nM; for AYAGAKAAI [1114.07] it is 48 nM. Same read-out and setting: the figure for WYWGPSLYSI [HBV env 362] is 16 nM and 8.3 nM.

(Values after patent publication US9340577.)
